According to article PMC12292525, “Identification, Cloning, and Functional Characterization of Carotenoid Cleavage Dioxygenase (CCD) from Olea europaea and Ipomoea nil” (Biology, 2025):

System: CC1=C(/C=C/C(C)=C/C=C/C(C)=C/C=C/C=C(C)/C=C/C=C(\C)C=O)C(C)(C)CCC1
Assay: beta-ionone formation, Michaelis-Menten nonlinear fit
Assay type: biochemical, Olea europaea
Settings: optimal reaction conditions (pH 9.5 Gly-NaOH, 45 °C reported as optimum), O2 co-substrate
Text: beta-ionone formation, Michaelis-Menten nonlinear fit on OeCCD1

OeCCD1 (Olea europaea var. sylvestris) gave a Km of 820 µM, a Vmax of 2.3 µmol/min/mg and a kcat of 3.35 s⁻¹. For the same substance, the kcat/Km was 4090 M⁻¹ s⁻¹.
